From the supplement of paper PMC7877785
± gives the uncertainty stated by the source.

Test: self-splicing fitness, log relative to wild type (ln ratio); higher = more splicing; Tetrahymena group I intron in knt gene, E. coli kanamycin selection, DiMSum; sequences stand for … in CUCUCU…GGAGGGAAAAGUUAUCAGGCAUGCACCUGGUAGCUAGUCUUUAAACCAAUAGAUUGCAUCGGUUUAAAAGGCAAGACCGUCAAAUUGCGGGAAAGGGGUCAACAGCCGUUCAGUACCAAGUCUCAGGGGAAACUUUGAGAUGGCCUUGCAAAGGGUAUGGUAAUAAGCUGACGGACAUGGUCCUAACCACGCAGCCAAGUCCUAAGUCAACAGAUCUUCUGUUGAUAUGGAUGCAGUUCACAGACUAAAUGUCGGUCGGGGAAGAUGUAUUCUUCUCAUAAGAUAUAGUCGGACCUCUCCUUAAUGGGAGCUAGCGGAUGAAGUGAUGCAACACUGGAGCCGCUGGGAACUAAUUUGUAUGCGAAAGUAUAUUGAUUAGUUUUGGAGUACUCGUGGUCG
Procedure, shortened: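 Six replicate transformations of E. coli BL21(DE3) with a pET-22b(+) library were grown overnight at 37°C or 30°C. The library randomised all eight P1ex-region intron nucleotides, the intron lying in the knt kanamycin-resistance gene, and plates were LB agar with or without 25 μg/mL kanamycin plus 100 μg/mL carbenicillin, 50 μM IPTG and 0.2% rhamnose. Pooled colonies were amplicon-sequenced on an Illumina HiSeq 2500, and fitness is the DiMSum error-weighted combination of wild-type-normalised replicate fold changes, kanamycin versus none.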

Row | Sequence | self-splicing fitness (ln) (30 °C) | self-splicing fitness (ln) (37 °C)
1 | UUUCAGCAAUAUUACGUGAA | -0.761 ± 0.061 | -0.17 ± 0.088
2 | UGUAAGCAAUAUUACGCGCU | -0.925 ± 0.078 | -0.315 ± 0.11
3 | AGAGAGCAAUAUUACGCGAU | – | -2.82 ± 0.43
4 | CAGCAGCAAUAUUACGAUCC | -2.11 ± 0.22 | -2.73 ± 0.4
5 | GUGGAGCAAUAUUACGCUCA | -1.19 ± 0.26 | -1.1 ± 0.26
6 | GCUCAGCAAUAUUACGCAGU | -2.41 ± 0.15 | -1.13 ± 0.14
7 | GGUAAGCAAUAUUACGCUAG | -4.34 ± 0.36 | -2.92 ± 0.29
8 | CGUUAGCAAUAUUACGACUC | -0.808 ± 0.25 | 0.024 ± 0.23
9 | AGUUAGCAAUAUUACGUUUC | -3.37 ± 0.34 | –
10 | AAGGAGCAAUAUUACGUCUC | -2.84 ± 0.48 | –
11 | GUUGAGCAAUAUUACGGUAU | -4.2 ± 0.23 | -1.71 ± 0.13
12 | GAAAAGCAAUAUUACGUAGC | -2.66 ± 0.15 | -1.51 ± 0.15
13 | UAGUAGCAAUAUUACGUGUC | – | -2.22 ± 0.34
14 | CCACAGCAAUAUUACGAAAG | -1.55 ± 0.066 | -0.182 ± 0.082
15 | AGACAGCAAUAUUACGGCAU | -0.544 ± 0.052 | -0.211 ± 0.066
16 | AUCGAGCAAUAUUACGUAGA | -3.09 ± 0.32 | -2.7 ± 0.38
17 | GAAGAGCAAUAUUACGAGCC | -1.61 ± 0.24 | -0.252 ± 0.36
18 | UUUUAGCAAUAUUACGUGCA | -2.12 ± 0.17 | -1.11 ± 0.18
19 | AACCAGCAAUAUUACGACCC | -0.941 ± 0.1 | 0.421 ± 0.13
20 | GCCAAGCAAUAUUACGACUC | -0.25 ± 0.08 | 0.136 ± 0.098
21 | AAAGAGCAAUAUUACGAAUA | -1.42 ± 0.35 | –

Row | Sequence | self-splicing fitness (ln) (30 °C) | self-splicing fitness (ln) (37 °C)
22 | CGCCAGCAAUAUUACGGCGU | -3.63 ± 0.46 | -2.17 ± 0.23
23 | ACUUAGCAAUAUUACGUCAC | -3.8 ± 0.22 | -1.91 ± 0.2
24 | UCGUAGCAAUAUUACGGGAU | -4.41 ± 0.46 | -1.99 ± 0.31
25 | CUAUAGCAAUAUUACGCUAA | -1.65 ± 0.2 | -2.41 ± 0.32
26 | CAUAAGCAAUAUUACGGACG | 0.133 ± 0.093 | 0.568 ± 0.12
27 | UUGUAGCAAUAUUACGACUU | -0.894 ± 0.3 | 0.769 ± 0.36
28 | AGGUAGCAAUAUUACGAUAG | -3.728 ± 0.035 | -2.72 ± 0.045
29 | UAGCAGCAAUAUUACGACUC | -0.27 ± 0.091 | 0.54 ± 0.12
30 | AGGGAGCAAUAUUACGAGUU | -4.48 ± 0.46 | -1.45 ± 0.19
31 | CCUUAGCAAUAUUACGUACG | -2.45 ± 0.22 | -2.2 ± 0.29
32 | UUCGAGCAAUAUUACGAUGU | -3.71 ± 0.46 | -2.7 ± 0.25
33 | UGGGAGCAAUAUUACGAGGC | -2.02 ± 0.35 | –
34 | GGGCAGCAAUAUUACGGAAA | -2.77 ± 0.21 | -2.26 ± 0.19
35 | AGGGAGCAAUAUUACGACUG | -2.15 ± 0.24 | 0.0208 ± 0.21
36 | GAAGAGCAAUAUUACGCAUU | -4.28 ± 0.2 | -2.2 ± 0.2
37 | AACUAGCAAUAUUACGCGAU | -2.64 ± 0.15 | -2.22 ± 0.17
38 | CUCUAGCAAUAUUACGGUUA | – | -3.24 ± 0.29
39 | AAGUAGCAAUAUUACGCAUG | -2.05 ± 0.069 | -0.492 ± 0.074
40 | CAGUAGCAAUAUUACGUCUA | -0.56 ± 0.064 | -0.256 ± 0.071
41 | GAACAGCAAUAUUACGAUUA | -0.501 ± 0.11 | -0.296 ± 0.098
